Data from the DeepSol protein solubility set.

Assay: soluble on expression in E. coli; label from the status in PepcDB or PDB records

| Sequence | soluble on expression in E. coli |
| --- | --- |
| MSLQSKEDFIEMRVPASAEYVSLIRLTLSGVFSRAGATYDDIEDAKIAVSEAVTNAVKHAYKENNNVGIINIYFEILEDKIKVVISDKGDSFDYETTKSKIGPYDKDENIDFLREGGLGLFLIESLMDEVTVYKESGVTISMTKYIKKEQVRNNGERVEISEGHHHHHH | soluble |
| MSLRASDDKALQYAIAEITEIATGFGLDFYPMRYEICPAEIIYTFGAYGMPTRFSHWSFGKQFFRMKLQYDLGLSKIYELVINSDPCYAFLLDTNSLIQNKLIVAHVLAHCDFFKNNIRFSNTKRDMVESMSATAERVKAYEHKYGKEEVETFLDAVLAIQEHIDPSLMRPKLAWSIDDLEEEEVEKKKASQYDDLWNLDNRNKKQERSNVRKKKKIPPQPEKDLLLFIEEYSRELEDWQRDILTMMREEMLYFWPQLETKIMNEGWASFWHQRILREMDLTSDEAIEFAKLNAGVVQPSKTSINPYYLGIKMFEDIEERYNNPTEEMKRRGVKPGSGRDKIFEVREIEWDVSFLRNYLNKDLVMREDMYLFQRQGKEYKVIDKEWEHVRDQLVNMRTNGGFPYLVVEDGDYLKNGELYIKHSYEGIELDLKYLEKVLPYLHQLWGRTVHMESIVESKGVVFSYDGKMVHRKYVEGHHHHHH | not soluble |
| MSLREAVLANLKKITDPVSGQDIVSAGIVRALNVEGDTVRFVIEIDPKLAERMEPVRAAAEKAAQMVEGVAKVSAMMTAHSDKAPPELKPRAKAAPQGPQPVAGVDRIVAVASGKGGVGKSTVSANLACALAAEGRRVGLLDADVYGPSQPRMLGVSGRPASPDGKTILPLRNHGVTMMSMGLMTNEGQAVVWRGPMLMGALQQMMNQVQWGGLDVLIVDLPPGTGDVQLTLSQKFAVDGAIIVSTPQDVALIDARKGIDMFRQLKTPILGMIENMSTHICSNCGHEEHVFGHGGVAAEAEKLGVPLLGEIPLHLDIRVAADGGAPIVVSKPDSPQAEAFRRIARDLIAKGQALEHHHHHH | soluble |
| MSLRERPVIDELSKVKKLKLTGQTEALFESWRSSWDEIETRLFPDLEEVLLEAEMNTDRYKFRSATHAENDIEQMLVVIEKQMDQILGGLKELLISEEKNAKESRATKEKFAELRREVLTRGFKLGETLPYIETKLSELSESLNSYDSLTDQGDHLEAREIVIVVQKEMQVIEAQMERIPSLLHETDTILPEEMTKLRAGYEEMVRKGYYLAQMELDKEISRMKNQIDKMKKNVINLDLDEAEQGVEELHNEIDLFYDTLEHEAEARHFVKENHSPTSDKLQRQNAVSDALAEQITEVKQTYHVAEDDLAVYLKTSAKLSEAKENFEQLTALIASGEIAYSAAQDTLKEIDAALITISAEQDKFAEELRSLRKDELEARDDAERMRRAIITLDRKMERERLPGLPEEYLSLREHMGESINALEKRLEEKPLNMKAVSQDWRIAEEDLTHLTEKAEEMMENVRLVEHVIQYANRYRLRNKELADELVQAENHFYNDYQYKKALEIAVTALEKVETGAFKKVEKAYESKVSVDEGHHHHHH | not soluble |
| MSLRESVLKIYNWADYIDEDMLAEFPRWYKEQTGEDIRIVYQTFDINEIMLTKIERGHEDFDVVCPSEYIIERMLRKGLLLPIDTVFGKTPNYLHNESPYIREQLDKLSWSGHRASDYAIGYMWGTAGILFNTDHVPAEDARTWASLWNLKYENKILMKESYRDAYGTALIYANAEDLKKGKVTVEELMNNYSQASIDTVEKYLKAMKPLIAGWEADFGKEMMTKGKAWLNMTWSGDAVWAIEEAEGVGIHLDYEVPVEGSNVWYDGWVIPKYARNKKAASYFINYLCRPDVALRNMDACGYVSAVATPEILEAKIDTTLSYFADLSYFFGPAADSIQIDKVQYPDRTVVERCAMIRDSGDKTELVLEMWSRVKGDNEGHHHHHH | soluble |
| MSLRFALTPGEPAGIGPDLCLLLARSAQPHPLIAIASRTLLQERAGQLGLAIDLKDVSPAAWPERPAKAGQLYVWDTPLAAPVRPGQLDRANAAYVLETLTRAGQGCLDGHFAGMITAPVHKGVINEAGIPFSGHTEFLADLTHTAQVVMMLATRGLRVALATTHLPLREVADAISDERLTRVARILHADLRDKFGIAHPRILVCGLNPHAGEGGHLGREEIEVIEPCLERLRGEGLDLIGPLPADTLFTPKHLEHCDAVLAMYHDQGLPVLKYKGFGAAVNVTLGLPIIRTSVDHGTALDLAGSGRIDSGSLQVALETAYQMAASRC | soluble |
| MSLRFGNRKLRQQQALQYELEKNKAELEEYREELVSHFARSAELLDTMAHDYRQLYQHMAKSSSSLLPEMSAESNPFRNRLAESEASNDQAPVQMPRDYSEGASGLLRSGAKRDEGHHHHHH | not soluble |
| MSLRHMQIETVNLPLARPMAAENGTRHAVTVIRVALEEKGFIGQGECTPAAHYGESADSVCRQLSAIREAIENGLTIEQLQQNLSPGAARNALDCALWRLNTALEKQTLWQRVGIHPPTSVVCAQTLALDSVEKMATAASNAVSHGALLLKIKLDRELILEKVAAIRAAAPNARLIIDARASWSGLDLHSLSTALLPYQVAMIEQPLPVGKDEDLQRFAHPIPICADESCRHSGDIVGLRRRYDMINIKLDKCGGLTEALAMVREAHFHGLRIMVGCTLGSSMAMEAALPVAADAEHVDLDGPIWLAADSSPYLTYNLGRIWLEGHHHHHH | soluble |
| MSLRIKDIARLANVSVGTVDRVLHGRSGVSEASRKRVEEILKQLDYQPNMYASALASNKKYTFACLLPKHLEGEYWTDVQKGIREAVTTYSDFNISANITHYDPYDYNSFVATSQAVIEEQPDGVMFAPTVPQYTKGFTDALNELGIPYIYIDSQIKDAPPLAFFGQNSHQSGYFAARMLMLLAVNDREIVIFRKIHEGVIGSNQQESREIGFRQYMQEHHPACNILELNLHADLNIEDSRMLDDFFREHPDVKHGITFNSKVYIIGEYLQQRRKSDFSLIGYDLLERNVTCLKEGTVSFLIAQQPELQGFNSIKTLCDHLIFRKEVACTNYMPIDLLTKENIDYYHSEGHHHHHH | soluble |
| MSLRKASVFIVELKFEQESCPLGVVIPLEESKNKLASVKPLVDLTRADMEQVNQLILSRAGSDVQMIPEVANHLISSGGKRLRPMLTLASASMFGYEGDHHIKLATSVEFMHTATLLHDDVVDESDLRRGKSTARTIWGNQASVLVGDFLLGQAFRMMVDVGSLDALDVLSTAASVIAEGEVLQLSVAKNMETTEDDYLQVIRAKTAALFAAAAEVGPIVAKTDKASRSALKSYGMNLGLAFQLVDDVLDYGGKSADLGKNTGDDFREGKITLPVILSYRRGTQDERAFWRNAIENGESSDENLEKALGLITKYNGLGDTIGRATHYGTIARDALAPLPESPWKNALLEVIDFCIERLNEGHHHHHH | soluble |
| MSLRKNPYRLSDEIFGISFRTADRIAKSLGIDPYSKYRISSGIKYVLSRAATEGHTFLEEEMLKSYTSKLLDINIDSIEDALVSLVLNKSVYVDRNDGMSKIYLSSFYHAELGVCRKLVELSQVRYSADMEDFEERIKQVQKKEGIILADKQKEAIREAMTNGVLVITGGPGTGKTTIIKSIISLLESEGYEFALAAPTGRAAKRMSEATGYEAKTIHRLLEIGYTSNEDELVFMRTEDNPIEADVVIIDEMSMVDIILMYHLLKAIVCGTRLILVGDVDQLPSVGPGNVLRDIIKSGMIKTVKLSEIFRQAGESMIVVNAHRINRGEHPILNEREKDFFFVTRNSQNDILKTVVDLCTRRIPDTYGYDPMKQIQVLSPMRKGTVGVANLNIELQKVLNPEDGKEGHHHHHH | soluble |
| MSLRLRKDVLNYESRQKSDLLIPNSNSISIYNQIADKYSRKITREEIFSGIYFLRYFLLRNAKGDVLEVGSGPGTNFPFYKWKKINTLTLVEPAEKMREIADARAKKKVPPNVLYRQFADLRQLPPNQSYDTIIQTFCICSQEKAVEQLNNYRSLLRSDGRILLIEHGKGKYKFLNRILNAYAESHYESWGCVWNRDIEQLLEDSELTIDSCKRFNFGTTYVIEAHEGHHHHHH | not soluble |
| MSLRQPNPSQKKAPTGQVRIISGLWRGRKLPVHDAEGLRPTTDRVKETLFNWLAQEVPNARCLDLFAGSGGLGFECASRQANQVTMLELNPLAFQQLKTNVQSLKAENIELIHTDALAFLRQSGKPYDVVFIDPPFRQGLLQETTQLLEQNGWLAPQAMIYIECEKELPLTELPPHWHLHREKSAGQVCYREGHHHHHH | not soluble |
| MSLRSDLINALYDENQKYDVCGIISAEGKIYPLGSDTKVLSTIFELFSRPIINKIAEKHGYIVEEPKQQNHYPDFTLYKPSEPNKKIAIDIKTTYTNKENEKIKFTLGGYTSFIRNNTKNIVYPFDQYIAHWIIGYVYTRVATRKSSLKTYNINELNEIPKPYKGVKVFLQDKWVIAGDLAGSGNTTNIGSIHAHYKDFVEGKGIFDSEDEFLDYWRNYERTSQLRNDKYNNISEYRNWIYRGRK | soluble |
